# According to the Human Domainome abundance scans (Beltran et al. 2025):
# ± gives the uncertainty stated by the source.
# B1: Integrator complex subunit 12, residues 155 to 213; numbered along this chain, Q96CB8 (parent)
# chain: AMEMGLACVVCRQMMVASGNQLVECQECHNLYHRDCHKPQVTDKEANDPRLVWYCARCT
# Variants of: B1
# Experiment: abundance fitness (aPCA) (normalised: wild type 0, dead -1); higher = more abundant; growth selection in yeast, the domain comes from the species named
# Settings: Homo sapiens
row,Variant,abundance fitness
1,N47P,-0.2 ± 0.056
2,N47H,0.011 ± 0.073
3,N47F,-0.162 ± 0.052
4,N47L,-0.05 ± 0.037
5,N47M,-0.105 ± 0.056
6,N47K,-0.046 ± 0.066
7,N47G,0.02 ± 0.053
8,N47E,-0.005 ± 0.054
9,N47Y,-0.223 ± 0.08
10,N47C,-0.013 ± 0.095
11,N47I,-0.11 ± 0.081
12,N47T,-0.075 ± 0.05
13,N47V,-0.066 ± 0.048
14,V41L,-0.011 ± 0.045
15,V41F,-0.175 ± 0.097
16,V41I,0.135 ± 0.058
17,V41T,-0.165 ± 0.057
18,V41G,-0.235 ± 0.041
19,V41C,-0.276 ± 0.081
20,V41N,-0.481 ± 0.096
21,V41H,-0.639 ± 0.11
22,V41S,-0.204 ± 0.05
23,V41P,-0.211 ± 0.065
24,V41Y,-0.346 ± 0.12

row,Variant,abundance fitness
1,V41E,-0.303 ± 0.059
2,V41D,-0.297 ± 0.083
3,V41R,-0.308 ± 0.038
4,V41W,-0.314 ± 0.056
5,E45D,0.005 ± 0.12
6,E45G,-0.222 ± 0.049
7,E45L,-0.048 ± 0.049
8,E45A,-0.087 ± 0.044
9,E45W,-0.248 ± 0.055
10,E45Y,0.005 ± 0.094
11,E45I,-0.213 ± 0.1
12,E45M,-0.193 ± 0.068
13,E45Q,-0.014 ± 0.073
14,E45P,-0.222 ± 0.078
15,E45F,-0.192 ± 0.086
16,E45C,-0.111 ± 0.074
17,E45H,-0.134 ± 0.091
18,E45R,-0.207 ± 0.042
19,E45T,-0.052 ± 0.054
20,E45N,-0.074 ± 0.1
21,E45K,0.073 ± 0.075
22,E45V,-0.038 ± 0.048
23,N30P,-0.706 ± 0.11
24,N30W,-0.091 ± 0.086

row,Variant,abundance fitness
1,N30Y,-0.081 ± 0.045
2,N30R,-0.01 ± 0.04
3,N30I,-0.231 ± 0.041
4,N30G,0.03 ± 0.039
5,N30V,-0.129 ± 0.039
6,N30Q,0.028 ± 0.084
7,N30L,-0.002 ± 0.047
8,N30E,-0.103 ± 0.072
9,N30F,-0.179 ± 0.045
10,N30D,0.079 ± 0.041
11,N30T,-0.105 ± 0.058
12,N30H,-0.049 ± 0.065
13,N30K,0.048 ± 0.095
14,N30S,-0.071 ± 0.043
15,H33Y,-0.795 ± 0.047
16,H33T,-0.85 ± 0.057
17,H33W,-1.21 ± 0.14
18,H33A,-0.609 ± 0.039
19,H33S,-0.721 ± 0.036
20,H33N,-0.584 ± 0.04
21,H33L,-0.869 ± 0.044
22,H33I,-0.873 ± 0.047
23,H33E,-0.483 ± 0.059
24,H33K,-0.542 ± 0.068

row,Variant,abundance fitness
1,H33D,-0.547 ± 0.039
2,H33M,-0.882 ± 0.084
3,H33R,-0.638 ± 0.043
4,H33V,-0.767 ± 0.037
5,H33C,0.013 ± 0.035
6,H33Q,-0.769 ± 0.084
7,H33P,-0.72 ± 0.051
8,H33G,-0.668 ± 0.037
9,K38P,-0.309 ± 0.05
10,K38T,0.011 ± 0.045
11,K38V,0.035 ± 0.046
12,K38F,-0.139 ± 0.073
13,K38C,-0.089 ± 0.077
14,K38S,0.016 ± 0.041
15,K38Q,-0.015 ± 0.054
16,K38D,0.081 ± 0.074
17,K38M,-0.05 ± 0.049
18,K38N,-0.209 ± 0.085
19,K38L,-0.096 ± 0.041
20,K38G,-0.15 ± 0.05
21,K38Y,-0.134 ± 0.071
22,K38R,-0.028 ± 0.04
23,K38E,0.008 ± 0.046
24,K38W,-0.341 ± 0.055

row,Variant,abundance fitness
1,H37S,-0.088 ± 0.031
2,H37N,-0.144 ± 0.035
3,H37M,0.031 ± 0.065
4,H37Y,-0.249 ± 0.036
5,H37D,-0.002 ± 0.035
6,H37I,-0.007 ± 0.035
7,H37A,-0.048 ± 0.035
8,H37L,-0.145 ± 0.033
9,H37F,-0.226 ± 0.033
10,H37K,-0.379 ± 0.069
11,H37T,-0.101 ± 0.042
12,H37E,-0.223 ± 0.08
13,H37V,-0.075 ± 0.032
14,H37C,-0.144 ± 0.034
15,H37Q,-0.176 ± 0.085
16,H37W,-0.297 ± 0.058
17,H37G,-0.148 ± 0.033
18,H37P,-0.645 ± 0.054
19,H37R,-0.315 ± 0.038
20,P39F,-0.308 ± 0.11
21,P39N,-0.144 ± 0.11
22,P39M,-0.248 ± 0.064
23,P39R,-0.279 ± 0.038
24,P39H,-0.347 ± 0.12

row,Variant,abundance fitness
1,P39V,-0.257 ± 0.049
2,P39T,-0.087 ± 0.056
3,P39S,-0.228 ± 0.049
4,P39A,-0.313 ± 0.056
5,P39G,-0.28 ± 0.041
6,P39C,0.045 ± 0.09
7,P39W,-0.363 ± 0.049
8,P39I,-0.184 ± 0.1
9,P39Y,-0.295 ± 0.12
10,P39L,-0.294 ± 0.045
11,D35E,0.107 ± 0.051
12,D35H,0.071 ± 0.036
13,D35V,-0.083 ± 0.032
14,D35Q,0.094 ± 0.054
15,D35C,-0.045 ± 0.033
16,D35G,0.013 ± 0.033
17,D35A,0.054 ± 0.036
18,D35Y,-0.074 ± 0.034
19,D35K,-0.087 ± 0.057
20,D35I,-0.079 ± 0.035
21,D35W,-0.089 ± 0.044
22,D35R,-0.029 ± 0.034
23,D35M,0.042 ± 0.05
24,D35S,-0.034 ± 0.031

row,Variant,abundance fitness
1,D35P,-0.215 ± 0.044
2,D35N,-0.052 ± 0.035
3,D35L,0.06 ± 0.032
4,D35T,0.023 ± 0.038
5,K44G,0.023 ± 0.04
6,K44E,0.042 ± 0.052
7,K44T,0.043 ± 0.048
8,K44Y,-0.486 ± 0.07
9,K44W,-0.306 ± 0.067
10,K44P,-0.076 ± 0.054
11,K44V,-0.038 ± 0.045
12,K44Q,-0.081 ± 0.072
13,K44A,0.008 ± 0.046
14,K44H,-0.124 ± 0.079
15,K44M,-0.036 ± 0.05
16,K44R,-0.042 ± 0.043
17,K44F,-0.139 ± 0.073
18,K44I,0.024 ± 0.082
19,K44C,0.059 ± 0.11
20,K44D,0.078 ± 0.059
21,K44S,-0.074 ± 0.046
22,K44L,-0.121 ± 0.049
23,K44N,0.119 ± 0.12
